Test results: PMC2796240

System: CCCCC(=O)Oc1ccc([N+](=O)[O-])cc1
Assay: purified protein
Settings: pH 7.5, 14.5 mM Tris-HCl, 0.75% glycerol, 0.5% Triton X, 1.1 µM enzyme

F. solani cutinase (Fusarium vanettenii)
Km: 1.48 ± 0.56 µM
kcat/Km: 10200 ± 6670 M⁻¹ s⁻¹
